This is an account of results in patent publication US20190071513A1 (APTEVO RESEARCH AND DEVELOPMENT, published 2019).

Assay [1] concerns the target human CD123 on the surface of CD123(+) cell lines (human) (UniProt P26951). The experiment in a line: cell-based or functional assay.
Assay [2] shares this target. As to the kind of experiment: flow cytometry competition on Molm-13 cells; competitor PE-conjugated 7G3 at 13 nM.
Assay [3] has the same target. The experiment in a line: flow cytometry competition on Molm-13 cells: preincubation with unlabeled 7G3, then PE-conjugated 7G3 at 13 nM as the competitor that is read. (A flow cytometer gives signals particle by particle.)
Assay [4] has as its target T1, human CD123 ectodomain with Avi-3xFLAG-His affinity tag (TRI032) (human).
T1 construct: also called CD123 ECD; recombinant monomeric CD123 ectodomain (ECD)
T1 chain: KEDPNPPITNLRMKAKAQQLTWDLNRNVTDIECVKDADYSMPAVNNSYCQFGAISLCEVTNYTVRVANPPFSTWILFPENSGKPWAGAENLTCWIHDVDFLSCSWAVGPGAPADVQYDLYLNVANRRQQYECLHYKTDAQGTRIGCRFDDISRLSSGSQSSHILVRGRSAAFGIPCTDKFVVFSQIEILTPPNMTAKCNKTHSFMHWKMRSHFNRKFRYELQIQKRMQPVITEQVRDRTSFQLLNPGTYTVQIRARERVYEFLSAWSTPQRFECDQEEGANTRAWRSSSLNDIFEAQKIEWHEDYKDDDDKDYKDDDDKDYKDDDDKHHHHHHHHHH
The experiment in a line: SPR (Biacore T200), bispecific captured by anti-Fc, monomeric CD123 ECD as analyte, 25 C, 1:1 model. On the technique in general: Surface plasmon resonance follows binding to a sensor surface in real time, without labels.
Protocol: SPR binding studies of bispecific molecules to recombinant monomeric CD123 ectodomain (ECD) were conducted at 25° C. in HBS-EP+ buffer. […] The bispecific molecules at 200 nM in HBS-EP+ buffer were captured by the immobilized anti-Fc F(ab′)2 fragment at a flow rate of 30 μL/min for 120 sec to reach a stable 2000 RU response. […] Optimal regeneration was achieved by one injection of 10 mM glycine (pH 1.7) at a flow rate of 30 μL/min for 15 sec followed by one injection of 50 mM NaOH at 30 μL/min for 15 sec. A two minute stabilization with HBS-EP+ buffer was completed before the subsequent run.
Sensorgrams obtained from kinetic SPR measurements were analyzed by the double subtraction method. The signal from the reference flow cell was subtracted from the analyte binding response obtained from flow cells with immobilized or captured ligands. Buffer reference responses were then averaged from multiple injections. […] All sensorgrams were fitted using a simple one-to-one binding model.

For assay [5], the target named is T2, human CD123 on the surface of CD123(+) cell lines (human, UniProt P26951 19-378).
T2 construct: whole, on cells; endogenous protein of tumor cell lines; also called interleukin-3 receptor alpha chain; IL3RA
As to the kind of experiment: flow cytometry on CD123(+) Molm-13 cells, PE anti-human IgG Fc secondary antibody, MFI; table under the graph.
Protocol: (§1) The Molm-13 cell line was obtained from DSMZ (Braunschweig, Germany). The Molm-13 cell line was cultured according to the provided protocols. Chinese hamster ovary (CHO) cells stably expressing the full length cynomolgus CD123 protein were developed in-house. […] Signal from bound molecules was detected using a LSR-II™ flow cytometer (BD Biosciences) and analyzed by FlowJo flow cytometry analysis software. Mean fluorescence intensity (MFI) of bound molecules on cells was determined after exclusion of doublets. Nonlinear regression analysis to determine EC50 values was performed in GraphPad Prism 7® graphing and statistics software.

Assay [6] addresses T3, Full-length cynomolgus CD123, isoform 1 (TRI114), on transfected cells (cynomolgus monkey).
T3 construct: also called cyno CD123; CHO cells stably expressing cynomolgus CD123 protein
T3 chain: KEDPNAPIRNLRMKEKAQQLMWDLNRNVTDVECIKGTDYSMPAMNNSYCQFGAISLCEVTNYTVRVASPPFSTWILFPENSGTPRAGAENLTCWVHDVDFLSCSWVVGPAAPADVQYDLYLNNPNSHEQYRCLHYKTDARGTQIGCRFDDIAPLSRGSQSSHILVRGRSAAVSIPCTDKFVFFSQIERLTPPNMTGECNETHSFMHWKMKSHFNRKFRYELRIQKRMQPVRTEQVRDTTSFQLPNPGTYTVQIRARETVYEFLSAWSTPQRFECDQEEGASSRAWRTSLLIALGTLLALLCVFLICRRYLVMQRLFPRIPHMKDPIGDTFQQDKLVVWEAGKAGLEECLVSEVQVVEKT
The experiment in a line: flow cytometry on CHO cells stably expressing cynomolgus CD123, PE anti-human IgG Fc secondary antibody, MFI; table under the graph.
Protocol: as §1

Assay [7] concerns the target T2, human CD123 on the surface of CD123(+) …. As to the kind of experiment: flow cytometry on CD123(+) Molm-13 cells, PE anti-human IgG Fc secondary antibody, MFI; table under the graph. The source holds these as a separate data set.
Protocol: as §1
The target of assay [8] is T4, CD3ε on Jurkat cells and human T-cells (human, UniProt P07766 23-207).
T4 construct: whole, on cells; on cells CD3ε stands in the TCR/CD3 complex; also called CD3 epsilon; CD3ε(+) Jurkat cell line
As to the kind of experiment: flow cytometry on CD3ε(+) Jurkat cells, PE anti-human Fc secondary.
Protocol: Flow cytometry was used to quantitate binding of constructed molecules to the CD3ε expressing Jurkat cell line. Binding studies on the CD3ε(+) Jurkat cell line were performed by standard flow cytometry-based staining procedures. […] Signal from bound molecules was detected using a LSR-II™ flow cytometer (BD Biosciences) and analyzed by FlowJo flow cytometry analysis software. Mean fluorescence intensity (MFI) of bound molecules on cells was determined after exclusion of doublets.

The target of assay [9] is T2, human CD123 on the surface of CD123(+) …. The experiment in a line: cell-based or functional assay.

Like-named read-outs stand apart in the source and are kept apart here.

Chain of human CD123 on the surface of CD123(+) cell lines (human) (P26951 19-378 limits assumed, form in doubt): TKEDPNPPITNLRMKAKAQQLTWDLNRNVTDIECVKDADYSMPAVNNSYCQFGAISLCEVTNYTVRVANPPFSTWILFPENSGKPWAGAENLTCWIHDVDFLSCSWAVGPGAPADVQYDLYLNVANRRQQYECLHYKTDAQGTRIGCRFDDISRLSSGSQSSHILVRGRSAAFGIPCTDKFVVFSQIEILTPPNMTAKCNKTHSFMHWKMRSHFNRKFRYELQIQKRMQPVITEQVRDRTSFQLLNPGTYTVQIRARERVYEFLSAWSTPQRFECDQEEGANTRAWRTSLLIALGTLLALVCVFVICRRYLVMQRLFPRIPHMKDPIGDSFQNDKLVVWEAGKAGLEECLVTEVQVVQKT
T2 sequence (P26951 19-378 limits assumed, form in doubt): as above
T4 sequence (P07766 23-207): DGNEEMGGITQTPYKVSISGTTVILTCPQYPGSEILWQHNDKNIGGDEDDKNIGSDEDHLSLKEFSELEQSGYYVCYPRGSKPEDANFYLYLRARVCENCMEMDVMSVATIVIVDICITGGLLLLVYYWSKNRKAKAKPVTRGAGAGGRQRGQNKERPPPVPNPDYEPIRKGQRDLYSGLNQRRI

B1: anti-human CD123 monoclonal antibody 7G3 (antibody, from another filing, V domains shown)
VH: EVQLQQSGPELVKPGASVKMSCKASGYTFTDYYMKWVKQSHGKSLEWIGDIIPSNGATFYNQKFKGKATLTVDRSSSTAYMHLNSLTSEDSAVYYCTRSHLLRASWFAYWGQGTLVTVSA
VL: DFVMTQSPSSLTVTAGEKVTMSCKSSQSLLNSGNQKNYLTWYLQKPGQPPKLLIYWASTRESGVPDRFTGSGSGTDFTLTISSVQAEDLAVYYCQNDYSYPYTFGGGTKLEIKR
Regarding B1, the IL-3 induced proliferation of TF-1 cells (CyQUANT), 4 days in [1] was 100%. This molecule displayed a percent inhibition of binding of PE-conjugated 7G3 in [2] of 100%. Also, the IC50 (read off the curve) in [3] turned out to be 2 nM.

B2: TRI129 (bispecific antibody)
chain: EVQLLESGGGLVQPGGSLRLSCAASGFTFSSYGMSWVRQAPGKGLEGVSAISGSGGSTYYADSVKGRFTISRDNSKNTLYLQMNSLRAEDTAVYYCAKEKLRYFDWLSDAFDIWGQGTMVTVSSGGGGSGGGGSGGGGSGGGGSDIVMTQSPDSLAVSLGERATINCKSSHSVLYSSNNKNYLAWYQQKPGQPPKLLIYWASTRESGVPDRFSGSGSGTDFTLTISSLQAEDVAVYYCQQYYSTPPTTFGGGTKVEIKSSSEPKSSDKTHTCPPCPAPEAAGAPSVFLFPPKPKDTLMISRTPEVTCVVVDVSHEDPEVKFNWYVDGVEVHNAKTKPREEQYNSTYRVVSVLTVLHQDWLNGKEYKCAVSNKALPAPIEKTISKAKGQPREPQVYTLPPSRDELTKNQVSLTCLVKGFYPSDIAVEWESNGQPENNYKTTPPVLDSDGSFFLYSKLTVDKSRWQQGNVFSCSVMHEALHNHYTQKSLSLSPGSGGGGSGGGGSGGGGSPSQVQLVQSGPEVKKPGSSVKVSCKASGYTFSRSTMHWVRQAPGQGLEWIGYINPSSAYTNYNQKFKDRVTITADKSTSTAYMELSSLRSEDTAVYYCARPQVHYDYNGFPYWGQGTLVTVSSGGGGSGGGGSGGGGSGGGGSDIQMTQSPSTLSASVGDRVTMTCSASSSVSYMNWYQQKPGKAPKRWIYDSSKLASGVPSRFSGSGSGTDYTLTISSLQPDDFATYYCQQWSRNPPTFGGGTKVEIKRS
notes: scFv-Fc-scFv, anti-CD123 × anti-CD3ε; dimer; also called OMT1 VHVL × TSC456 scFv-Fc-scFv
By Kd is commonly meant the constant that tells how readily two partners part at equilibrium. Read a low Kd as higher affinity. What is called koff is a measure of how fast the partners let go of each other. Lower therefore signals a long-lived complex. By kon is commonly meant the rate constant with which the complex forms. A high value points to faster complex formation. A word on the EC50: it is the concentration needed to bring the measured effect to its halfway point. In assay [4], B2 returned a Kd of 11.4 nM, a koff of 0.00205 s⁻¹ and an association rate constant (kon) of 179000 M⁻¹ s⁻¹. Moreover, the EC50 in assay [5] was determined as 5.33 nM. In [6], this molecule came in with an EC50 of 8.77 nM. Moreover, in assay [7], the EC50 is 9.69 nM.

B3: TSC266 (bispecific antibody)
chain: DIQMTQSPSAMSASVGDRVTITCRASKSISKYLAWFQQKPGKVPKLRIHSGSTLQSGVPSRFSGSGSGTEFTLTISSLQPEDFATYYCQQHIEYPWTFGQGTKVEIKRGGGGSGGGGSGGGGSQVQLVQSGAEVKKPGASVKVSCKASGYTFTDYYMHWVRQAPGQGLEWMGYFNPYNDYTRYAQKFQGRVTMTRDTSISTAYMELSSLRSDDTAVYYCARSDGYYDAMDYWGQGTTVTVSSSEPKSSDKTHTCPPCPAPEAAGAPSVFLFPPKPKDTLMISRTPEVTCVVVDVSHEDPEVKFNWYVDGVEVHNAKTKPREEQYNSTYRVVSVLTVLHQDWLNGKAYACAVSNKALPAPIEKTISKAKGQPREPQVYTLPPSRDELTKNQVSLTCLVKGFYPSDIAVEWESNGQPENNYKTTPPVLDSDGSFFLYSKLTVDKSRWQQGNVFSCSVMHEALHNHYTQKSLSLSPGQRHNNSSLNTGTQMAGHSPNSQVQLVESGGGVVQPGRSLRLSCKASGYTFTRSTMHWVRQAPGQGLEWIGYINPSSAYTNYNQKFKDRFTISADKSKSTAFLQMDSLRPEDTGVYFCARPQVHYDYNGFPYWGQGTPVTVSSGGGGSGGGGSGGGGSAQDIQMTQSPSSLSASVGDRVTMTCSASSSVSYMNWYQQKPGKAPKRWIYDSSKLASGVPARFSGSGSGTDYTLTISSLQPEDFATYYCQQWSRNPPTFGGGTKLQITSSS
notes: anti-PSMA scFv - Fc - anti-CD3 scFv (CRIS-7 derived) at the C-terminus; also called anti-PSMA×CRIS-7 scFv-Fc-scFv
On to B3, for which, in assay [8], the EC50 is 2 nM and the “fold reduction of binding against DRA240” value was roughly 10 fold.

B4: TRI168 (bispecific antibody)
chain 1: QAVVTQEPSLTVSPGGTVTLTCRSSTGAVTTSNYANWVQQKPGQAPRGLIGGTNKRAPWTPARFSGSLLGGKAALTITGAQAEDEADYYCALWYSNLWVFGGGTKLTVLGGGGSGGGGEVQLVQSGAELKKPGASVKVSCKASGYTFTDYYMKWVRQAPGQGLEWIGDIIPSNGATFYNQKFKGRVTITVDKSTSTAYMELSSLRSEDTAVYYCARSHLLRASWFAYWGQGTLVTVSSGGCGGGEVAALEKEVAALEKEVAALEKEVAALEK
chain 2: DFVMTQSPDSLAVSLGERVTMSCKSSQSLLNSGNQKNYLTWYQQKPGQPPKLLIYWASTRESGVPDRFSGSGSGTDFTLTISSLQAEDVAVYYCQNDYSYPYTFGQGTKLEIKGGGSGGGGEVQLVESGGGLVQPGGSLRLSCAASGFTFSTYAMNWVRQAPGKGLEWVGRIRSKYNNYATYYADSVKDRFTISRDDSKNSLYLQMNSLKTEDTAVYYCVRHGNFGNSYVSWFAYWGQGTLVTVSSGGCGGGKVAALKEKVAALKEKVAALKEKVAALKESSSLNDIFEAQKIEWHEDYKDDDDKDYKDDDDKDYKDDDDKHHHHHHHHHH
With B4, in assay [9], the “EC50 of T-cell activation (CD4+ and CD8+ CD25+ CD69+) with Molm-13 cells, 24 hours” value is less than 0.01 nM; the “EC50 of T-cell proliferation (CFSE) with Molm-13 cells, 4 days” value fell in the range of 0.002 to 0.005 nM.
